Experimental data as given in PMC8677947.

Assays:
[1] = target: GCN4 leucine zipper (Saccharomyces cerevisiae) (UniProt P03069); conditions: cited from earlier work
[2] = target: GCN4^WT (leucine zipper dimerization element of GCN4), C-terminal 6x His-tagged (yeast); assay: native gel or EMSA; native (nondenaturing) PAGE beside SDS-PAGE of GCN4^WT and GCN4^3mut

Chain of GCN4^WT (leucine zipper dimerization element of GCN4), C-terminal 6x His-tagged (domain or fragment) (P03069 whole entry, the tested form may be a part): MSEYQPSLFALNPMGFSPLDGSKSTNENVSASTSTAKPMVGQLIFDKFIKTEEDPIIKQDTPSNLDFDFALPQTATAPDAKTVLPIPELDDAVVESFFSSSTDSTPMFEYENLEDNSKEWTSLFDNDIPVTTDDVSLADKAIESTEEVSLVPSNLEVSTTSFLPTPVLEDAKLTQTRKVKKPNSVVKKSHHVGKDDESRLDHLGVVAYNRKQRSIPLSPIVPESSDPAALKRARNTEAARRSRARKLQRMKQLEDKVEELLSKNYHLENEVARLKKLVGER
Chain of GCN4 leucine zipper (P03069 250-277): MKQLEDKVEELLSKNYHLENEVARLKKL

Row | stoichiometry N [2] | Substance | Kd [1] [nM]
1 | – | GCN4 leucine zipper (from UniProt P03069) | 0.18
2 | 2 | GCN4^WT (leucine zipper dimerization element of GCN4), C-terminal 6x His-tagged (domain or fragment) | –
